Test results as given in patent US20210115138A1 (WUXI BIOLOGICS IRELAND, published 2021).

Experiments:
[1] = biological target: cynomolgus LAG-3 (Example 3) (cynomolgus); assay: method not stated
[2] = biological target: T1, human LAG-3 protein (Example 3) (human, UniProt P18627 23-450, limits assumed); assay: SPR; SPR, direct binding
T1 construct: human is stated for the SPR test
T1 sequence (looked up): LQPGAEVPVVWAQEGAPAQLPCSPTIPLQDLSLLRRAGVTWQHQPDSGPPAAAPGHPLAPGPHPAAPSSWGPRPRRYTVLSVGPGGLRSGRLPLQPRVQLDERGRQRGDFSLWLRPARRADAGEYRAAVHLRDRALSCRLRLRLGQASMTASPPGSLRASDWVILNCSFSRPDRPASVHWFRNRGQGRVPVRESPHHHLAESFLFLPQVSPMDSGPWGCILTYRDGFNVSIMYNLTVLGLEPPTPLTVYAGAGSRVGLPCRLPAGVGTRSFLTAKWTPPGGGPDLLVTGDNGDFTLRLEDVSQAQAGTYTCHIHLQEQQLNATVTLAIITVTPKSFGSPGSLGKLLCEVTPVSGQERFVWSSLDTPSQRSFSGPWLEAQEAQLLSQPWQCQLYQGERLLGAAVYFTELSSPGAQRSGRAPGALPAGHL

human LAG-3 on cells [3] = biological target: T2, human LAG-3 on cells (human, UniProt P18627 23-525); assay: FACS on cell surface human LAG-3
T2 construct: whole, on cells; also called cell surface human LAG-3; human LAG-3 expressing 293F cells
T2 sequence (looked up): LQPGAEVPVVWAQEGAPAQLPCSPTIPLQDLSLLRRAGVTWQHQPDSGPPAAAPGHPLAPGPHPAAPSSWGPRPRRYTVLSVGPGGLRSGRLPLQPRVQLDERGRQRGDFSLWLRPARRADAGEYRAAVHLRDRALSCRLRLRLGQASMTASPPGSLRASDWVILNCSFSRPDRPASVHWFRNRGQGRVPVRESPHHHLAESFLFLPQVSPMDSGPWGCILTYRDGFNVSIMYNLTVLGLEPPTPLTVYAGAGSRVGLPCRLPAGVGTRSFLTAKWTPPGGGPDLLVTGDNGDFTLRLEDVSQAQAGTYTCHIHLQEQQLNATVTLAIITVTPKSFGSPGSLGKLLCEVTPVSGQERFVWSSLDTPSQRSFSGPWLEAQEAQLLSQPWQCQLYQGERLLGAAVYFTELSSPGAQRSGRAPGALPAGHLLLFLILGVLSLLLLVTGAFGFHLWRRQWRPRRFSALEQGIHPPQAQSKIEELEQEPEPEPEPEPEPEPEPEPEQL

human LAG-3 on cells [4] = biological target: T2, human LAG-3 on cells; assay: FACS affinity test on cell surface human LAG-3
[5] = biological target: T1, human LAG-3 protein (Example 3); assay: ELISA; blocking of LAG-3 protein binding to LSECtin; ELISA; blocking LAG-3 binding to LSECtin
[6] = biological target: T1, human LAG-3 protein (Example 3); assay: ELISA; blocking of LAG-3 protein binding to Galectin-3; ELISA; blocking LAG-3 binding to Galectin-3
[7] = biological target: T1, human LAG-3 protein (Example 3); assay: FACS; blocking of LAG-3 protein binding to MHC-II on Raji cells; FACS; blocking LAG-3 binding to MHC-II on Raji cells
human PD-1 on cells [8] = biological target: T3, human PD-1 on cells (human, UniProt Q15116 25-288); assay: cell-based or functional assay
human LAG-3 on cells [9] = biological target: T2, human LAG-3 on cells; assay: cell-based or functional assay
human PD-1 on cells [10] = biological target: T3, human PD-1 on cells; assay: flow cytometry on human PD-1 expressing cells
Procedure: (§1) MFI of the cells was measured by flow cytometry and analyzed by FlowJo (version 7.6.1).

[11] = biological target: T4, mouse Fc-tagged human PD-1 protein (human, UniProt Q15116 25-170); assay: ELISA; antibody coated, mFc-tagged PD-1 titrated
T4 construct: extracellular domain; also called mouse Fc-tagged PD-1 protein; not shown: mouse Fc tag

[12] = biological target: T5, mouse Fc-tagged human LAG-3 protein (human, UniProt P18627 23-450); assay: ELISA; antibody coated, mFc-tagged LAG-3 titrated
T5 construct: extracellular domain; also called mouse Fc-tagged LAG-3 protein; not shown: mouse Fc tag
T5 sequence (looked up): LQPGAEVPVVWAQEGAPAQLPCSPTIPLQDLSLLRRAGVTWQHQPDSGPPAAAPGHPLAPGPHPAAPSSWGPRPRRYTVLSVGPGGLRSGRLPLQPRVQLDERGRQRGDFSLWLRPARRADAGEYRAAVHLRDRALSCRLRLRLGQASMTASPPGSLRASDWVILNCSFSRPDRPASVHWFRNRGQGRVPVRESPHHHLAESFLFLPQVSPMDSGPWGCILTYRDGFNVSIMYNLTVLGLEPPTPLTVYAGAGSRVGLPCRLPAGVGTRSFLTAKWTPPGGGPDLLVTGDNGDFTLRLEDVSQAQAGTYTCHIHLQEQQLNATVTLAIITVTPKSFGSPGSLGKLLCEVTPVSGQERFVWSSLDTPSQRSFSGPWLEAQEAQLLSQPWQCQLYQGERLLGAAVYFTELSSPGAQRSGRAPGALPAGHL
Procedure: The plates were then washed and subsequently incubated with HRP-labeled goat anti-mouse IgG antibody for 1 hour. After washing, TMB substrate was added and the color reaction was stopped by 2M HCl. The absorbance at 450 nm was read using a microplate reader.

human LAG-3 on cells [13] = biological target: T2, human LAG-3 on cells; assay: flow cytometry on human LAG-3 expressing 293F cells
Procedure: as §1

cynomolgus PD-1 on cells = biological target: T6, cynomolgus PD-1 on cells (cynomolgus, UniProt B0LAJ3 25-288); assay: flow cytometry on cynomolgus PD-1 expressing 293F cells
T6 construct: also called cell surface cynomolgus PD-1
Procedure: (§2) MFI of the cells was measured by flow cytometry and analyzed by FlowJo.

[14] = biological target: T7, cynomolgus LAG-3 on cells (cynomolgus); assay: flow cytometry on cynomolgus LAG-3 expressing 293F cells
T7 construct: whole, on cells; also called cell surface cynomolgus LAG-3
Procedure: as §2

[15] = biological target: T8, His-tagged human PD-1 protein (MW: 40 KD) (human, UniProt Q15116 25-167); assay: SPR Biacore 8K; antibody captured on anti-human Fc, His-PD-1 injected
T8 construct: not shown: His tag
Procedure: Binding affinity of the bispecific antibodies to the antigen were determined by SPR assay using Biacore 8K. PD-1×LAG-3 antibodies were captured on an anti-human IgG Fc antibody immobilized CMS sensor chip (GE).
(§3) The sensorgrams of blank surface and buffer channel were subtracted from the test sensorgrams. The experimental data was fitted by 1:1 model using Langmiur analysis.

[16] = biological target: T5, mouse Fc-tagged human LAG-3 protein; assay: flow cytometry; blocking of mFc-LAG-3 binding to MHC-II on Raji cells
Procedure: The mixture was transferred into the 96-well plates seeded with Raji cells which express MHC-II on the surface. […] The MFI was evaluated by flow cytometry and analyzed by the software FlowJo.

human PD-1 on cells [17] = biological target: T3, human PD-1 on cells; assay: flow cytometry; competition with mFc-PD-L1 on PD-1 expressing CHO-S cells
Procedure: The mixture was transferred into the 96-well plates seeded with PD-1 expressing CHO-S cells. […] The MFI was evaluated by flow cytometry and analyzed by the software FlowJo.

Human LAG-3 without tag = biological target: T9, Human LAG-3 without tag (human, UniProt P18627 23-450); assay: SPR; antibody immobilized, untagged human LAG-3 injected, single-cycle kinetics
T9 construct: extracellular domain; also called untagged LAG-3 ECD protein
T9 sequence (looked up): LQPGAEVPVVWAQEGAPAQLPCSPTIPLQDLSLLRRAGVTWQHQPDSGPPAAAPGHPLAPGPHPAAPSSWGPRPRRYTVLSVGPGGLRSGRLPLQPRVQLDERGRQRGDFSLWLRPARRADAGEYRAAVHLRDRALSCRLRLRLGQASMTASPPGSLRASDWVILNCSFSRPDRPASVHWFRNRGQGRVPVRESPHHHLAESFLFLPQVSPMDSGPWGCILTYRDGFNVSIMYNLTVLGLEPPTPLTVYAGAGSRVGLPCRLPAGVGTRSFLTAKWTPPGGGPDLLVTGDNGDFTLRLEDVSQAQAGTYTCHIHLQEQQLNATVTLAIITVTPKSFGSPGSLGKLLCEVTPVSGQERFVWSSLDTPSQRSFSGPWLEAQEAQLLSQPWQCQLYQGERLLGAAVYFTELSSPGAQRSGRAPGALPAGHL
Procedure: The chip was regenerated with 10 mM glycine (pH 1.5).
as §3

human CD4 protein = human CD4 protein (human, UniProt P01730 26-390, limits assumed); assay: ELISA, human CD4 coated at 1 ug/mL, antibody added at 0.67 and 6.7 nM, OD450
Procedure: (§4) Cross-reactivity to human CD4, CTLA-4 or CD28 was measured by ELISA. Plates were coated with human CD4, CTLA-4 or CD28 at 1 μg/mL overnight at 4° C. […] The plates were then washed and subsequently incubated with corresponding secondary antibody for 60 min. After washing, TMB substrate was added and the color reaction was stopped by 2M HCl.

human CD28 protein = biological target: T10, human CD28 protein (human, UniProt P10747 19-152); assay: ELISA, human CD28 coated at 1 ug/mL, antibody added at 0.67 and 6.7 nM, OD450
T10 construct: extracellular domain
Procedure: as §4

human CTLA-4 protein = biological target: T11, human CTLA-4 protein (human, UniProt P16410 36-161); assay: ELISA, human CTLA-4 coated at 1 ug/mL, antibody added at 0.67 and 6.7 nM, OD450
T11 construct: extracellular domain
Procedure: as §4

mouse PD-1 protein = biological target: T12, mouse PD-1 protein (mouse, UniProt Q02242 25-167, limits assumed); assay: ELISA, antibody coated on the plate, mouse PD-1 (His tag on the sheet) added at 0.25, 2.5 and 25 nM, OD450
T12 sequence (looked up): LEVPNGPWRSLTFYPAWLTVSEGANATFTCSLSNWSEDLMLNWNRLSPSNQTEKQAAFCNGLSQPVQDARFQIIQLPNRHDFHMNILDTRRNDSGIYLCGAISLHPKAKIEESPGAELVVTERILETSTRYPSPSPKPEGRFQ
Procedure: After blocking and washing, various concentrations of mouse PD-1 protein were added to the plates and incubated at room temperature for 1 hour. The plates were then washed and subsequently incubated with HRP-labeled goat anti-mouse IgG antibody for 1 hour. After washing, TMB substrate was added and the color reaction was stopped by 2M HCl. The absorbance at 450 nm was read using a microplate reader.

[18] = biological target: T4, mouse Fc-tagged human PD-1 protein; assay: dual-binding ELISA; mFc-PD-1 coated, antibody titrated, detected by His-tagged LAG-3 and anti-His-HRP; dual binding: PD-1 and LAG-3 protein together

T8 sequence (Q15116 25-167 limits assumed): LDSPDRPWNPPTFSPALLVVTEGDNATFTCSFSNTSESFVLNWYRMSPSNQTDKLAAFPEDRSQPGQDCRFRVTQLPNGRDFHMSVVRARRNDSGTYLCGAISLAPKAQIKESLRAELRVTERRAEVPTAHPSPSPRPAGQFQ
T3 sequence (Q15116 25-288): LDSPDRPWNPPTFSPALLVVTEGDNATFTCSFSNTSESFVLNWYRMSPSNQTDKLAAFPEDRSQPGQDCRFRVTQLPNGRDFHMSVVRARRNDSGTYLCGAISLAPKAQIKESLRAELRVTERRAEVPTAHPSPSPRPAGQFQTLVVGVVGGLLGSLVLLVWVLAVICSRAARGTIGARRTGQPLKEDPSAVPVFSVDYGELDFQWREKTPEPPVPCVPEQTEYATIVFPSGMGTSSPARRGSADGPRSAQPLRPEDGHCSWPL
T4 sequence (Q15116 25-170): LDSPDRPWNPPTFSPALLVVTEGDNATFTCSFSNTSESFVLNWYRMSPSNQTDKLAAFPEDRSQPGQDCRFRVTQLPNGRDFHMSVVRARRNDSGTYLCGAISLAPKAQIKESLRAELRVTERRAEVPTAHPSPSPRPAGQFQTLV
T11 sequence (P16410 36-161): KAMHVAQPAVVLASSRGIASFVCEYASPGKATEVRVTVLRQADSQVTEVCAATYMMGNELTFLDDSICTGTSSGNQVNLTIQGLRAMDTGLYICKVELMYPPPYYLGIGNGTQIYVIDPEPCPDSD
T6 sequence (B0LAJ3 entry or part of it limits assumed): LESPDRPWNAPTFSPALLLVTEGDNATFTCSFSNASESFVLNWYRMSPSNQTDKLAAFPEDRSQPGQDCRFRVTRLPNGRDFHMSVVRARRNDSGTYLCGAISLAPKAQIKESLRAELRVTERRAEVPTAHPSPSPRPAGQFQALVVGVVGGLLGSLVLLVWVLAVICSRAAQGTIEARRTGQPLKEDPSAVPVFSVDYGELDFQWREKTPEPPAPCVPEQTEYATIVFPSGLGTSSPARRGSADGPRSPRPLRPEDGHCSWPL

B1: W3395-3.40.19 (antibody, V domains shown)
VH: QLQLQESGPGLVKPSETLSLTCTVSGDSISSTSYYWGWIRQPPGKGLEWIGSFYYSGSTYYNPSLKSRVTISVDTSKNQFSLKLNSVTAADTAVYYCARMQLWSYDVDVWGQGTTVTVSS
VL: QSALTQPASVSGSPGQSITISCTGTSSDVGGYDYVAWYQQHPGKVPKLMIYDVSERPSGVSNRFSGSKSGNTASLTISGLQAEDEADYYCSSYTSTTTLVVFGGGTKLSVL
notes: Fully human monoclonal anti-LAG-3 antibody; also called human W3395-3.40.19 LAG-3 Ab
- EC50 [1]: 3.92 nM
- Kd [2]: 0.0106 nM
- EC50 (human LAG-3 on cells [3]): 0.13 nM
- Kd (human LAG-3 on cells [4]): 0.053 nM
- EC50 [5]: 0.51 nM
- EC50 [6]: 0.56 nM
- EC50 [7]: 0.67 nM

B2: W365-U6T1.G14-1.uIgG4.SP (bispecific antibody)
heavy: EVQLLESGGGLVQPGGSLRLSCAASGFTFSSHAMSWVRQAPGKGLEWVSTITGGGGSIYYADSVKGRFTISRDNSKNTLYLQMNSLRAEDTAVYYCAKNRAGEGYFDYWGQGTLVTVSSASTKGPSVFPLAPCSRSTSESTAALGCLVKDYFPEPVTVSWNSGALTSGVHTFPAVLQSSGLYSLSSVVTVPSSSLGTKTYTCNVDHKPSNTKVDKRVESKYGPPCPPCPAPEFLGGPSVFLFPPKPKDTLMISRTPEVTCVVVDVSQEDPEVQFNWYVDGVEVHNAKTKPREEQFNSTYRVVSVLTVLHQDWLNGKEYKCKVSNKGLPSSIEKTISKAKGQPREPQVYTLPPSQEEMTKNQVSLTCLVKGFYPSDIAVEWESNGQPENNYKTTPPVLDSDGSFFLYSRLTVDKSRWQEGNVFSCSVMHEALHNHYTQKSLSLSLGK
light: SYELTQPLSVSVALGQTARITCGGDNIGNKDVHWYQQKPGQAPVLVIYRDSNRPSGIPEGFSGSNSGNTATLTISRAQAGDEADYYCQVWDSIWVFGGGTKLTVLGQPKAAPSVTLFPPSSEELQANKATLVCLISDFYPGAVTVAWKADSSPVKAGVETTTPSKQSNNKYAASSYLSLTPEQWKSHKSYSCQVTHEGSTVEKTVAPTECSGGGGSGGGGSQLQLQESGPGLVKPSETLSLTCTVSGDSISSTSYYWGWIRQPPGKGLEWIGSFYYSGSTYYNPSLKSRVTISVDTSKNQFSLKLNSVTAADTAVYYCARMQLWSYDVDVWGQGTTVTVSSGGGGSGGGGSGGGGSQSALTQPASVSGSPGQSITISCTGTSSDVGGYDYVAWYQQHPGKVPKLMIYDVSERPSGVSNRFSGSKSGNTASLTISGLQAEDEADYYCSSYTSTTTLVVFGGGTKLSVL
notes: Anti-PD-1 (W3055-1.153.7) human IgG4 S228P; also called W365-G14; W365G-14
- EC50 of NFAT pathways enhancement (luciferase reporter) (human PD-1 on cells [8]): 0.4 nM
- EC50 of IL-2 pathways enhancement (luciferase reporter) (human LAG-3 on cells [9]): 0.92 nM
- EC50 (human PD-1 on cells [10]): 1.32 nM
- EC50 [11]: 0.07 nM
- EC50 [12]: 0.27 nM
- EC50 (human LAG-3 on cells [13]): 2.57 nM
- EC50 (cynomolgus PD-1 on cells): 0.38 nM
- EC50 [14]: 6.5 nM
- Kd [15]: 2.46 nM
- koff [15]: 0.000695 s⁻¹
- kon [15]: 283000 M⁻¹ s⁻¹
- IC50 [16]: 2.2 nM
- IC50 (human PD-1 on cells [17]): 1.01 nM
- Kd (Human LAG-3 without tag): < 0.0261 nM
- koff (Human LAG-3 without tag): < 1e-05 s⁻¹
- kon (Human LAG-3 without tag): 383000 M⁻¹ s⁻¹
- binding result (human CD4 protein): no binding (tested: 6.7 nM)
- binding result (human CD28 protein): no binding (tested: 6.7 nM)
- binding result (human CTLA-4 protein): no binding (tested: 6.7 nM)
- binding result (mouse PD-1 protein): no binding (tested: 25 nM (mouse PD-1))
- EC50 [18]: 0.04 nM
